The results in this text go back to patent US20210221914A1.

One test deals with CD64 (FcgammaRI) (UniProt P12314). Description: SPR, single-cycle kinetics, bivalent analyte model.
The target in the next test is CD32a167H (UniProt P12318). Description: SPR, BIAcore 8K, antibody captured on anti-Fab chip, steady state affinity fit.
For a further test, the target named is CD32a167R (UniProt P12318). The test is described as above.
In another test the target is CD32b (FcgammaRIIb) (UniProt P31994). The test is described as above.
CD32b (FcgammaRIIb), sequence (P31994 46-217 limits assumed): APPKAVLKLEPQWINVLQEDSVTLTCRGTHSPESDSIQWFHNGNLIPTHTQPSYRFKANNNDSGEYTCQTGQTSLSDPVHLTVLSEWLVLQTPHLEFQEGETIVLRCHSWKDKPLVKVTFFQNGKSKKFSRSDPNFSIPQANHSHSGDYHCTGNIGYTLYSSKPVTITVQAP
The target in the next test is CD16a176F (UniProt P08637). Description: SPR, BIAcore 8K, antibody captured on anti-Fab chip, single-cycle kinetics, bivalent analyte model. A general note: SPR reads the build-up and loss of mass on a sensor chip optically.
CD16a176F, sequence (P08637 17-208 limits assumed): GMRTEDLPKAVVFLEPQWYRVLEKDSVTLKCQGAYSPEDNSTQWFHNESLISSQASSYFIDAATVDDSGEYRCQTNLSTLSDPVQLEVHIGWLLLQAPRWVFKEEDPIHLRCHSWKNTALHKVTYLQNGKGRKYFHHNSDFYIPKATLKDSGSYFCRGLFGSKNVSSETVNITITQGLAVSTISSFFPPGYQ
Another test addresses CD16a176V (UniProt P08637). Described as above.
In the next test the target is CD16b (FcgammaRIIIb) (UniProt O75015). The description is as above.

Usually koff stands for a measure of how fast the partners let go of each other. The low end stands for a long-lived complex, the high end for a short-lived complex. The term kon denotes the rate constant with which the complex forms. A lower kon goes with slower complex formation.

CD16a176V, sequence (P08637 17-208 F176V limits assumed): as the sequence (P08637 17-208 limits assumed) above, with F160V counted along it
CD32a167R, sequence (P12318 36-218 H167R limits assumed): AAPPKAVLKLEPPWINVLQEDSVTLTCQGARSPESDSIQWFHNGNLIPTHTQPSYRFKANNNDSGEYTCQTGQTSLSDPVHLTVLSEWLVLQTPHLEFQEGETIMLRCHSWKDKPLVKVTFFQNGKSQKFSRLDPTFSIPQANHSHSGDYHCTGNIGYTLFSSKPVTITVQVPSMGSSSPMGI
CD32a167H, sequence (P12318 36-218 limits assumed): as the sequence (P12318 36-218 H167R limits assumed) above, with R132H counted along it
CD64 (FcgammaRI), sequence (P12314 16-288 limits assumed): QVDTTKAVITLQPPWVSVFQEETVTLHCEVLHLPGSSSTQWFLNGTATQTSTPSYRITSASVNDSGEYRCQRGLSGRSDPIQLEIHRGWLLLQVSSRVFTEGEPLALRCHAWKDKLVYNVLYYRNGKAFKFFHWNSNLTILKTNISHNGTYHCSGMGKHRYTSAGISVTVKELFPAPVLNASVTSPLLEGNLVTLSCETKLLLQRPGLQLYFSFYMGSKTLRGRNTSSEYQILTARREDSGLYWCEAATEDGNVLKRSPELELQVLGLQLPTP

“CD-GLU antibody (human IgG1, m1,17 allotype, CD loop replaced by the Glu epitope YMPMENNY)”: the fold increase in off-rate relative to CD-WT with CD64 (FcgammaRI) came to 1.2 fold. The Kd with CD32a167H was determined as 505 nM; with CD32a167R it was 488 nM; in the test with CD32b (FcgammaRIIb), 1610 nM; in the test with CD16a176F, 1050 nM; with CD16a176V, 334 nM; in the test with CD16b (FcgammaRIIIb), 556 nM. For the same substance, the koff with CD16a176F stood at 0.189 s⁻¹; in the test with CD16a176V, 0.146 s⁻¹; in the test with CD16b (FcgammaRIIIb), 0.168 s⁻¹. Moreover, the kon in the test with CD16a176F was determined as 181000 M⁻¹ s⁻¹; with CD16a176V, 438000 M⁻¹ s⁻¹; in the test with CD16b (FcgammaRIIIb) it was 302000 M⁻¹ s⁻¹.
For the substance “CD-WT antibody (human IgG1, m1,17 allotype, wild-type CD loop)”, the Kd came to 450 nM with CD32a167H; 439 nM in the test with CD32a167R; 1530 nM with CD32b (FcgammaRIIb); 869 nM with CD16a176F; 241 nM in the test with CD16a176V; 426 nM with CD16b (FcgammaRIIIb). Moreover, the koff with CD16a176F was 0.185 s⁻¹; in the test with CD16a176V, 0.181 s⁻¹; with CD16b (FcgammaRIIIb), 0.166 s⁻¹. The kon stood at 213000 M⁻¹ s⁻¹ in the test with CD16a176F, 751000 M⁻¹ s⁻¹ in the test with CD16a176V and 389000 M⁻¹ s⁻¹ with CD16b (FcgammaRIIIb).
